167 variants from the RNAGym collection of RNA variant scans (doi:10.7554/elife.80360) can be followed below.

First the molecules themselves.
B1: CPEB3 Ribozyme (parent)
chain: GGGGGCCACAGCAGAAGCGUUCACGUCGCGGCCCCUGUCAGAUUCUGGUGAAUCUGCGAAUUCUGCUGU

The variants in this data set derive from B1. The data set can be described thus: self-cleavage, relative activity (ratio to wild type); higher = more cleavage; co-transcriptional.
For G17U C24U, the self-cleavage is 0.179.

On to G17U C24A, for which the self-cleavage was found to be 0.133.

G17C U69A: the self-cleavage amounted to 0.246. For G17C U69G, the self-cleavage amounted to 0.303. For the variant G17C C35A, the self-cleavage turned out to be 0.135. As to G17U U62C, the self-cleavage was 0.23. The value for G17U U62A was 0.281. The same measure for G17U U62G: 0.316. For G17C U43C, the self-cleavage is 0.111. The value for G17C U43A was 0.0954; that for G17C U43G was 0.0986.

On to G17C G65U, for which the self-cleavage is 0.131. G17C G65A: the self-cleavage is 0.158. For the variant C18A C63G, the self-cleavage worked out at 0.147. The same measure for C18A C63U: 0.151. The same measure for G17U C57U: 0.228; for G17C C34G: 0.157; for G17C C34U: 0.174. As for G17C C34A, the self-cleavage was found to be 0.18. G17C U46G: the self-cleavage was 0.101.

Take G17C U46A: the self-cleavage turned out to be 0.122. The value for G17C U46C was 0.119; that for G17C C66U was 0.152; that for C18G C45G was 0.113. The value for C18G C45A was 0.0664; that for C18G C45U was 0.183; that for G17U A51C was 0.423. On to G17U A51U, for which the self-cleavage came to 0.43.

In the case of G17U A51G, the self-cleavage was determined as 0.569. The same measure for G17U G48U: 0.694; for G17U G48C: 0.635.

With G17U U20G, the self-cleavage is 0.192. The value for G17U U20A was 0.151; that for G17U U20C was 0.107. The same measure for G17U C54G: 0.166; for G17C U26A: 0.156; for G17C U26G: 0.175. The same measure for G17C U26C: 0.145. G17U U36A: the self-cleavage amounted to 0.0699. As to G17U U36G, the self-cleavage was determined as 0.191. The same measure for G17U G56U: 0.2; for G17U G56C: 0.219; for G17U G56A: 0.32. For the variant G17U A42C, the self-cleavage turned out to be 0.299. In the case of G17U A42U, the self-cleavage is 0.334. The value for G17U C35G was 0.227; that for G17U C35A was 0.214. The same measure for G17U C35U: 0.338. The value for C18G C27G was 0.224; that for C18G C27A was 0.16; that for C18A G68A was 0.357. As to C18A G68C, the self-cleavage was 0.28. The same measure for G17C C54A: 0.1; for G17C C54G: 0.166; for G17U C18U: 0.155. As to G17U C18A, the self-cleavage turned out to be 0.137. The same measure for G17U C18G: 0.138; for C18G A59U: 0.17; for C18G A59G: 0.22. On to G17U G28C, for which the self-cleavage was 0.11. Regarding G17U G28A, the self-cleavage was found to be 0.108.

For G17U G25A, the self-cleavage is 0.143. The same measure for G17U G25C: 0.107; for C18A C22U: 0.0813. Take C18A C22G: the self-cleavage amounted to 0.159. The value for C18A C22A was 0.144.

As for C18A A23G, the self-cleavage came out at 0.171. The same measure for G17U A59G: 0.357; for G17U A59U: 0.147; for G17C G41U: 0.123. The same measure for G17C G41C: 0.156; for C18A C27A: 0.163; for C18A G65U: 0.102. The same measure for C18A G65A: 0.148; for C18A C32U: 0.22. Consider C18A C32G, for which the self-cleavage worked out at 0.181.

C18A C32A: the self-cleavage amounted to 0.192. The value for C18A C54U was 0.173; that for C18A C54G was 0.179; that for G17C U21G was 0.229. As to G17C U21C, the self-cleavage worked out at 0.0625.

Consider C18A C29G, for which the self-cleavage came to 0.15.

As to G17U G31A, the self-cleavage was 0.191. In the case of G17U G31U, the self-cleavage worked out at 0.169. The value for G17U G31C was 0.129; that for C18A G25U was 0.0886. As to C18A G25C, the self-cleavage is 0.178. The value for G17U U64C was 0.251. The same measure for G17U U26G: 0.297; for G17U U26A: 0.312; for G17U U26C: 0.286. As to C18G C32G, the self-cleavage is 0.195. In the case of C18G C32A, the self-cleavage was 0.105. The same measure for C18G C32U: 0.195.

Take C18A G28A: the self-cleavage is 0.12. The same measure for C18A G28U: 0.889; for C18A G28C: 0.426. The same measure for C18A U61G: 0.166; for C18A U61A: 0.138; for G17U A40U: 0.149.

C18A U69A: the self-cleavage came out at 0.302. As for C18A U69G, the self-cleavage stood at 0.307. Turning to G17U U55A, the self-cleavage amounted to 0.177.

For the variant G17U U55G, the self-cleavage was 0.238. The value for G17C C63G was 0.103. The value for G17C C63U was 0.139. As to C18A U26A, the self-cleavage turned out to be 0.128. Consider C18A A42C, for which the self-cleavage turned out to be 0.166. The value for C18A A42U was 0.0858.

With C18A U53C, the self-cleavage came out at 0.169.

In the case of C18A C45U, the self-cleavage stood at 0.21.

Turning to C18A C45G, the self-cleavage turned out to be 0.179.

Take C18A C45A: the self-cleavage was 0.0998. The value for C18A G19C was 0.0974. The same measure for C18A G19U: 0.12; for G17C U62A: 0.171; for G17C U62G: 0.201.

Regarding C18A C34A, the self-cleavage worked out at 0.145. As for G17U C45U, the self-cleavage turned out to be 0.528. The same measure for G17U C45G: 0.395. The value for G17U U69C was 0.874; that for G17C C45G was 0.142; that for G17C C45U was 0.121. The same measure for C18A G30U: 0.132; for C18A G30C: 0.133. Regarding C18A G30A, the self-cleavage was determined as 0.117. The same measure for G17U G30C: 0.119; for G17U G30U: 0.168; for C18A A52G: 0.201.

Regarding C18A A52U, the self-cleavage is 0.258. Turning to G17U U67C, the self-cleavage came to 0.537. The same measure for G17C C29A: 0.367; for G17C U67C: 0.145; for G17C U67G: 0.209. On to C18A U64G, for which the self-cleavage stood at 0.178. The same measure for G17U U49G: 0.455. For G17U U49C, the self-cleavage was 0.554. The value for G17U U49A was 0.662. The same measure for C18G C34G: 0.153. The value for C18G C34U was 0.133; that for C18G C34A was 0.131; that for G17C G48U was 0.194.

As for G17C G48C, the self-cleavage worked out at 0.158.

With C18G A42G, the self-cleavage turned out to be 0.229. The value for C18G A42U was 0.137; that for G17C G25C was 0.12. The value for G17C G25U was 0.107; that for G17C G25A was 0.15. The same measure for C18A C57A: 0.117. With C18A G58A, the self-cleavage was 0.155. The same measure for C18A G58U: 0.184. As to G17C G28U, the self-cleavage was found to be 0.111.

On to G17C G28C, for which the self-cleavage stood at 0.129. The value for G17C G28A was 0.127. The value for G17C G47C was 0.212. The same measure for C18A G50A: 0.191; for C18A G50C: 0.208. On to C18A G50U, for which the self-cleavage came out at 0.284. In the case of C18G A51C, the self-cleavage was 0.159. Regarding C18G A40C, the self-cleavage came to 0.152.

Regarding C18G A40U, the self-cleavage is 0.167. In the case of G17C G37C, the self-cleavage is 0.0977. The value for G17C G37A was 0.0971; that for G17U G68A was 0.875; that for G17C U53G was 0.126. The value for C18G C63U was 0.136.

For C18G C63A, the self-cleavage came out at 0.179.
